Values joined by “and” are separate entries in the source; they are usually repeats but may differ in a detail not shown here. Equal entries are not always repeated.
Experiments:
[1] = target: rSODSs, fusion of the N-terminal domain (NTD) of SOD NG2215 of Geobacillus thermodenitrificans NG80-2 with SODSs (Geobacillus thermodenitrificans NG80-2 | Sulfolobus solfataricus); assay: AUC; sedimentation velocity, interference data, 36,000 rpm, An-60 Ti rotor, 4 °C; 50 mM potassium phosphate buffer plus 150 mM NaCl, pH 8.0; continuous c(s) distribution (SEDFIT)
[2] = target: the molecule itself; assay: as above

With “rSODSs, fusion of the N-terminal domain (NTD) of SOD NG2215 of Geobacillus thermodenitrificans NG80-2 with SODSs (enzyme)” the stoichiometry N [1] was 4 and 2.

B1: superoxide dismutase from the archaeon Sulfolobus solfataricus (SODSs) (enzyme, UniProt P80857 1-211, looked up)
chain: MTLQIQFKKYELPPLPYKIDALEPYISKDIIDVHYNGHHKGYVNGANSLLERLEKVVKGDLQTGQYDIQGIIRGLTFNINGHKLHALYWENMAPSGKGGGKPGGALADLINKQYGSFDRFKQVFTETANSLPGTGWAVLYYDTESGNLQIMTFENHFQNHIAEIPIILILDEFEHAYYLQYKNKRADYVNAWWNVVNWDAAEKKLQKYLTK
notes: Fe superoxide dismutase (SODSs) of Sulfolobus solfataricus; gene synthesised into pET-28a (pET-SODSs); expected size 24.2 kDa; Tetramer by analytical ultracentrifugation (major peak), with small quantities of dimers; also called Fe-SODSs; native SODSs
In the case of B1, the “stoichiometry N” value [2] is reported as 4 and 2.

Source: article PMC4771647, “Improving the thermostability and stress tolerance of an archaeon hyperthermophilic superoxide dismutase by fusion with a unique N-terminal domain” (SpringerPlus, 2016)
